Experimental data from patent publication US20080213187A1, “NOVEL CASCADE POLYMER COMPLEXES, PROCESSES FOR THEIR PREPARATION AND PHARMACEUTICAL COMPOSITIONS COMPRISING THEM” (priority 2007, published 2008).

Tests used:
[1] = Plasma kinetics after intravenous administration to rats; format: in vivo; settings: for Plasma levels (as % of the dose): i.v. 50 μmol total Gd/kg, ICP-AES
Protocol: Plasma Kinetics of the Compounds 2e and 4e After Intravenous Administration to Rats
The title substances from Examples 2e and 4e, and for comparison the title substance from Example 1 of EP 0 836 485, were administered intravenously to rats in a dose of 50 μmol of total gadolinium/kg of body weight. Blood samples were then taken through a catheter in the common carotid artery at various times (1, 3, 5, 10, 15, 30, 60, 90, 120, 240, 360 min, and 24 h p.i.), and the metal content was determined by atomic emission spectroscopy (ICP-AES) and converted into plasma levels using a conversion factor (0.625). The kinetic data were calculated (software: WinNonlin) from the plasma concentrations (Tab. 1, 2).

[2] = rats, cited from earlier work
[3] = rats; cited from earlier work
[4] = intravenous, 50 μmol of total gadolinium/kg, calculated with WinNonlin from plasma concentrations

Compound	Plasma levels (as % of the dose) ([1]; 1 min p.i.) [%]	Plasma levels (as % of the dose) ([1]; 3 min p.i.) [%]	Plasma levels (as % of the dose) ([1]; 5 min p.i.) [%]	Plasma levels (as % of the dose) ([1]; 10 min p.i.) [%]	Plasma levels (as % of the dose) ([1]; 15 min p.i.) [%]	Plasma levels (as % of the dose) ([1]; 30 min p.i.) [%]	Plasma levels (as % of the dose) ([1]; 60 min p.i.) [%]	Plasma levels (as % of the dose) ([1]; 90 min p.i.) [%]	Plasma levels (as % of the dose) ([1]; 120 min p.i.) [%]	Plasma levels (as % of the dose) ([1]; 240 min p.i.) [%]	Plasma levels (as % of the dose) ([1]; 360 min p.i.) [%]	Plasma levels (as % of the dose) ([1]; 1440 min p.i.) [%]	Half-life α phase [1, 4] [min]	Half-life β phase [1, 4] [min]	Volume of distribution Vd ss [1, 4] [L/kg]	accumulation in liver tissue ([2]; 24 hours after intravenous injection)	dose eliminated ([2]; in 24 hours)	excretion behaviour [3]
CC(C(=O)NCC(=O)NCCCC[C@H](NC(=O)CNC(=O)C(C)N1CCN(CC(=O)O)CCN(CC(=O)O)CCN(CC(=O)O)CC1)C(=O)NCCCC[C@H](NC(=O)[C@H](CCCCNC(=O)CNC(=O)C(C)N1CCN(CC(=O)O)CCN(CC(=O)O)CCN(CC(=O)O)CC1)NC(=O)CNC(=O)C(C)N1CCN(CC(=O)O)CCN(CC(=O)O)CCN(CC(=O)O)CC1)C(=O)NCCN(CCNC(=O)[C@H](CCCCNC(=O)[C@H](CCCCNC(=O)CNC(=O)C(C)N1CCN(CC(=O)O)CCN(CC(=O)O)CCN(CC(=O)O)CC1)NC(=O)CNC(=O)C(C)N1CCN(CC(=O)O)CCN(CC(=O)O)CCN(CC(=O)O)CC1)NC(=O)[C@H](CCCCNC(=O)CNC(=O)C(C)N1CCN(CC(=O)O)CCN(CC(=O)O)CCN(CC(=O)O)CC1)NC(=O)CNC(=O)C(C)N1CCN(CC(=O)O)CCN(CC(=O)O)CCN(CC(=O)O)CC1)C(=O)c1cc(C(=O)N(CCNC(=O)[C@H](CCCCNC(=O)[C@H](CCCCNC(=O)CNC(=O)C(C)N2CCN(CC(=O)O)CCN(CC(=O)O)CCN(CC(=O)O)CC2)NC(=O)CNC(=O)C(C)N2CCN(CC(=O)O)CCN(CC(=O)O)CCN(CC(=O)O)CC2)NC(=O)[C@H](CCCCNC(=O)CNC(=O)C(C)N2CCN(CC(=O)O)CCN(CC(=O)O)CCN(CC(=O)O)CC2)NC(=O)CNC(=O)C(C)N2CCN(CC(=O)O)CCN(CC(=O)O)CCN(CC(=O)O)CC2)CCNC(=O)[C@H](CCCCNC(=O)[C@H](CCCCNC(=O)CNC(=O)C(C)N2CCN(CC(=O)O)CCN(CC(=O)O)CCN(CC(=O)O)CC2)NC(=O)CNC(=O)C(C)N2CCN(CC(=O)O)CCN(CC(=O)O)CCN(CC(=O)O)CC2)NC(=O)[C@H](CCCCNC(=O)CNC(=O)C(C)N2CCN(CC(=O)O)CCN(CC(=O)O)CCN(CC(=O)O)CC2)NC(=O)CNC(=O)C(C)N2CCN(CC(=O)O)CCN(CC(=O)O)CCN(CC(=O)O)CC2)cc(C(=O)N(CCNC(=O)[C@H](CCCCNC(=O)[C@H](CCCCNC(=O)CNC(=O)C(C)N2CCN(CC(=O)O)CCN(CC(=O)O)CCN(CC(=O)O)CC2)NC(=O)CNC(=O)C(C)N2CCN(CC(=O)O)CCN(CC(=O)O)CCN(CC(=O)O)CC2)NC(=O)[C@H](CCCCNC(=O)CNC(=O)C(C)N2CCN(CC(=O)O)CCN(CC(=O)O)CCN(CC(=O)O)CC2)NC(=O)CNC(=O)C(C)N2CCN(CC(=O)O)CCN(CC(=O)O)CCN(CC(=O)O)CC2)CCNC(=O)[C@H](CCCCNC(=O)[C@H](CCCCNC(=O)CNC(=O)C(C)N2CCN(CC(=O)O)CCN(CC(=O)O)CCN(CC(=O)O)CC2)NC(=O)CNC(=O)C(C)N2CCN(CC(=O)O)CCN(CC(=O)O)CCN(CC(=O)O)CC2)NC(=O)[C@H](CCCCNC(=O)CNC(=O)C(C)N2CCN(CC(=O)O)CCN(CC(=O)O)CCN(CC(=O)O)CC2)NC(=O)CNC(=O)C(C)N2CCN(CC(=O)O)CCN(CC(=O)O)CCN(CC(=O)O)CC2)c1)N1CCN(CC(=O)O)CCN(CC(=O)O)CCN(CC(=O)O)CC1 (stereo partly drawn) [Example No. 1 from EP 0 836 485]	75.0	39.2	25.0	6.9	4.0	1.5	1.0	0.9	0.7	0.4	0.4	0.0						
Octa-Gd complex amide from the Gd complex of 10-(4-carboxy-1-methyl-2-oxo-3-azabutyl)-1,4,7,10-tetraazacyclododecane-1,4,7-triacetic acid with dendritic octaamine 4d [Example 4e]	65.9	44.2	30.0	17.5	13.5	8.3	4.5	2.7	1.6	0.3	0.0	0.0	3.3	42.0	0.20			
albumin-GdDTPA																~30 % of the dose	20 % of the dose	
polylysine-GdDTPA																		excreted unchanged by glomerular filtration via the kidney
